Assay results reported in publication PMC5120205 (2016).

Columns and labels:
[1] = target: IsdB NEAT2 domain (Staphylococcus aureus strain USA300); assay: SPR
[2] = target: recombinant full-length IsdB (Staphylococcus aureus strain USA300, UniProt Q2FHV2 41-613); assay: SPR

B1: D2-06-N2 (IGHV1-69*01 germline-reverted) (antibody, V domains shown)
VH: QVQLVQSGAEVKKPGSSVKVSCKASGGTFSSYAISWVRQAPGQGLEWMGGIIPIFGTANYAQKFQGRVTITADESTSTAYMELSSLRSEDTAVYYCARDRPPGAQFDTWGQGTLVTVSS
VL: not shown
Kd [1]: 0.0241 µM

B2: D4-10-N1 germline-reverted (IGHV4-39) (antibody, V domains shown)
VH: QLQLQESGPGLVKPSETLSLTCTVSGGSISSSSYYWGWIRQPPGKGLEWIGSIYYSGSTYYNPSLKSRVTISVDTSKNQFSLKLSSVTAADTAVYYCAKPKSRDRGGPGDDYFGMDVWGQGIMVTVSS
VL: DIQLTQSPSFLSASVADRVTITCRASQAVRSSLAWYQQKPGKAPQLLIYSASTLENGVSSRFSGSGPGTEFTLTISSLQPEDVGTYYCQQLNTYPFTFGPGTKVEIK
Kd [2]: 0.0907 µM
